According to patent US6723699B1, “Treating disorders by application of insulin-like growth factors and analogs” (Cephalon, Inc., priority 1989, dated 2004):

Assays:
[1] = test system: brain ornithine decarboxylase; assay: Induction of brain ornithine decarboxylase after intraventricular injection, adult rats; format: in vivo, rat; conditions: 6 hours, cerebral cortex, medial septum, hippocampus
Description: To determine whether the induction of brain ornithine decarboxylase by IGF-I was limited to developing animals, IGF-I was also injected intraventricularly into the lateral ventricles of adult Sprague-Dawley rats. After 6 hours, the brains were removed, dissected into several regions (cerebral cortex, medial septum, and hippocampus), and then assayed for ornithine decarboxylase activity as described in Example 4.

[2] = test system: cultured rat cortical cells; assay: [3H]-leucine incorporation in cultured rat cortical cells; format: cell-based; conditions: low density 24 hour mixed cortical cultures
Description: The ability of IGF-I and a synthetic derivative of IGF-II (IGF-II(54-67)) to increase the incorporation of [^3H]-leucine and to promote the survival of neurite bearing cells was examined in cultured rat cortical cells (the numbers “54-67” in IGF-II indicate the fragment includes amino acid residues 54-67 of native IGF-II).
Measurements were performed, using standard techniques known to those skilled in the art, on dissociated cortical cells obtained from day 18-19 embryonic rats. Cells were seeded at 1.5×10^4/cm^2 on poly-1-ornithine-laminin coated plastic tissue culture cells in serum-free N2 medium (Bottenstein et al. Proc. Natl. Acad. Sci. U.S.A. 76: 514-517 (1978)). [^3H]-leucine was added to cells at plating for the incorporation assay. Cultures were terminated 24 hours after plating and measured for either [^3H]-leucine incorporation or for the number of neuritic cells by microscopic examination.

IGF-I receptor = target: T1, IGF-I receptor (Rattus norvegicus, UniProt P24062); assay: 125I-[Threonine59]IGF-I displacement (IGF-I receptor competition) assay, rat brain homogenate; format: binding
T1 construct: Brain tissue containing the cerebral cortex and cerebellum was dissected from adult Sprague-Dawley rats; from tissue; host or cells: adult Sprague-Dawley rat brain (cerebral cortex and cerebellum), homogenate pellet
T1 sequence (P24062 31-737 limits assumed): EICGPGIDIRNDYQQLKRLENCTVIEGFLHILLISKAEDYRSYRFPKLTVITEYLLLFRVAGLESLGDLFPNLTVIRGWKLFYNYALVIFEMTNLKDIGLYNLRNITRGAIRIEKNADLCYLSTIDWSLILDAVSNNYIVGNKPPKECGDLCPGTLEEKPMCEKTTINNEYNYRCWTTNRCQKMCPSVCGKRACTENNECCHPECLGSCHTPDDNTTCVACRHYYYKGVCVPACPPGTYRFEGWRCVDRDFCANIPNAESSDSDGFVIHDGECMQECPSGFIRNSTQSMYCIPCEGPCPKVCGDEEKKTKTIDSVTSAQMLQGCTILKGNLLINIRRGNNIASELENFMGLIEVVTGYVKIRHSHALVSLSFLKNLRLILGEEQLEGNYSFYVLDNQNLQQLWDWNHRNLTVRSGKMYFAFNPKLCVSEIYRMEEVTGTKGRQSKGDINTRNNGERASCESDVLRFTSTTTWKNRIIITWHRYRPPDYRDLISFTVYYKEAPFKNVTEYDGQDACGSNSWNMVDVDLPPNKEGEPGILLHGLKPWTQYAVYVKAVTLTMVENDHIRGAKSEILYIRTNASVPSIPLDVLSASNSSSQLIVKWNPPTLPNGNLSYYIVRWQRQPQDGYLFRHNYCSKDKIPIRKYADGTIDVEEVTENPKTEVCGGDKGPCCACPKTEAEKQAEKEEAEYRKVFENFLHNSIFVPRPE
T1 sequence (P24062 742-1370 partner limits assumed): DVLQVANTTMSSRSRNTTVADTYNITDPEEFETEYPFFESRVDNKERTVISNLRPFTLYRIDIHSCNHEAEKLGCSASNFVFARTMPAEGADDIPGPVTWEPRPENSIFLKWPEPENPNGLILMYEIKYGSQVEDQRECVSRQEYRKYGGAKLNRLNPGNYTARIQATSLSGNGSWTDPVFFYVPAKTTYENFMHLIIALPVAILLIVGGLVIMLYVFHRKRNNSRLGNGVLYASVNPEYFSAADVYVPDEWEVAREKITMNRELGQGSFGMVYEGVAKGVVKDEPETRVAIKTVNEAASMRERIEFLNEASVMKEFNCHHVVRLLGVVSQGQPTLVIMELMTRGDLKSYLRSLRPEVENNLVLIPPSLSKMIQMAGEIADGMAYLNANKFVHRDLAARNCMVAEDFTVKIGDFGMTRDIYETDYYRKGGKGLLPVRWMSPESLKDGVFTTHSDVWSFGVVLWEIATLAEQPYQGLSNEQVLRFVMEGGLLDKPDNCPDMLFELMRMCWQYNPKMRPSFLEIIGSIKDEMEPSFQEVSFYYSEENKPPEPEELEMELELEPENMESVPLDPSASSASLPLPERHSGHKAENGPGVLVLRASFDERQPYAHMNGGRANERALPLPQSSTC
Description: Brain tissue containing the cerebral cortex and cerebellum was dissected from adult Sprague-Dawley rats (Hilltop Lab Animals, Inc. Scottsdale, Pa.) and homogenized at low power for 5 minutes in a Brinkmann Polytron homogenizer (Westbury, N.Y.) containing 50 volumes of ice-cold buffer consisting of 10 mM HEPES, 0.5% BSA, 0.0125% NEM, 0.025% bacitracin, and 100 KIU/ml aprotinin, pH 7.6 (Bohannon et al., Endocrinology 119:943-945 (1986). Following homogenization, the tissue was collected after centrifugation at 7800×g for 20 minutes and resuspended in 10 volumes of assay buffer. Tissue (50 μl), 100 μl ^125I-[Threonine^59]IGF-I (20 pM), and 50 μl of buffer or peptides of varying concentration were added to 96-well plates and incubated on ice for 3 hours. After the incubation period, the tissue was collected on Whatman GF/C filters that had been pre-soaked in 0.01% polyethylenimine and washed four times with ice-cold assay buffer using a Brandel cell harvester (Gaithersburg, Md.). The filters were removed and the bound ^125I-[Threonine 59]IGF-I was measured using a Beckman Model 5500B Gamma Counter.

motoneurons = assay: Motoneuron survival in ovo (developmentally regulated motoneuron death); format: in vivo, chick; conditions: 5 μg/egg daily onto chorioallantoic membrane, E6 to E9, counted E10
Text: In the spinal cord, as well as in other regions of the nervous system, neurons are over-produced during development, and undergo a process of naturally occurring cell death prior to […] (reviewed in Oppenheim, R. W. 1991, Annu Rev. Neurosci. 14:453-501). During this period, approximately 50% of the motoneurons degenerate and die. Certain neurotrophic agents applied exogenously during this period prevent or retard this form of neuronal death (e.g., partially purified muscle extracts and ciliary neurotrophic factor reduce motor neuron death in chick embryos (McManaman et al., 1990, Neuron 4:891-898; Oppenheim et al. 1991, Science 25:1616-1617).
The IGFs were administered daily onto chorioallantoic membrane (5 μg/egg in a volume of 50 μl) from embryonic day E6 to E9 through a small window cut into the shell of the egg. Control embryos received an equal volume of vehicle (phosphate buffered saline) alone on E10, the embryos were removed, sacrificed and the spinal cords sectioned. Motoneurons (identified morphologically in silver-stained sections) were counted in serial sections from both treated and control embryos. […] The differences between effects produced by the different IGFs used were not statistically significant (Student t test […]).

[3] = test system: 14.5 day embryonic rat spinal cord neurons; assay: Choline acetyltransferase activity in 14.5 day embryonic rat spinal cord neurons, serum-free; format: cell-based; conditions: serum-free and insulin-free N2 medium, 48 hr
Description: The activity of IGF-I, IGF-II and IGF-III was assayed on dissociated cultures of 14.5 day embryonic rat spinal cord neurons. The spinal cords were removed from embryos and dissociated in 0.05% trypsin in Dulbecco's Phosphate Buffered Saline (DPBS). Dissociated cells were seeded onto poly-1-ornithine substrates in 96 well microtiter plates at 2×10^5 cells/well in 200 μl of serum-free and insulin-free N2 medium (Bottenstein and Sato, 1979 supra) containing 0.05% bovine serum albumin. After a 48 hr incubation at 37° C. in a humidified atmosphere of 5% CO2, 95% air, cultures were assayed for choline acetyltransferase activity according to a modification (McMananman et al., Dev. Bio., 25:311-320 (1988)) of the technique described by Fonnum (Fonnum, J. Neurochem. 24:405-409 (1975)).

[4] = test system: fetal rat cortical neuronal cultures; assay: Fetal rat cortical neuron survival by [3H]leucine incorporation; format: cell-based
Description: The neuronal survival promoting activity of IGF-I and IGF-II was assayed on fetal rat cortical neuranal cultures. Cerebral cortices were removed from embryonic day 18 fetal rats. Cortices were minced and treated with neutral protease (Dispase, Collaborative Research) to yield dissociated cell preparations. Cells were plated at low density (5×10^3 cells/well) onto poly-L-ornithine and laminin coated ½ area 96 well plates in 50 μl of serum and insulin-free N2 medium containing 0.05% BSA and 50 μM leucine. IGF-I or II were present from time of seeding. Control cultures received no growth factor. Cultures were incubated for 24 hr at 37° C. in an atmosphere of 5% CO2, 95% air. After 24 hrs, [^3H]leucine was added in an additional 50 μl of modified N2 medium to a final concentration of 12.5 μCi/ml. Twenty-four hours after the addition of [^3H]leucine, cultures were harvested, protein precipitated on filters with 10% trichloroacetic acid, and dried filters counted in a liquid scintillation counter. The incorporation of [^3H]leucine into cells is an accurate reflection of cell survival, since incorporated [^3H]leucine counts correlated directly with the number of surviving cells as measured by microscopic counts of cells in identical cultures.

Substance: GPETLCGAELVDALQFVCGDRGFYFNKPTGYGSSS-RRAPQTGIVDECCFRSCDLRRLEMYCAPLKPAKSA [IGF-I]
- ornithine decarboxylase activity (in words) [1]: stimulated ornithine decarboxylase activity in all brain regions assayed
- [3H]-leucine incorporation (in words) [2]: increased [^3H]-leucine incorporation
- PERCENT MAX. BOUND (IGF-I receptor; peptide 10 pM, 20 pM 125I-[Thr59]IGF-I): 100%
- PERCENT MAX. BOUND (IGF-I receptor; peptide 40 nM): 9.6%
- displacement of 125I-[Threonine59]IGF-I (in words) (IGF-I receptor; rat brain homogenate): potent displacers
- prevention of developmentally regulated motoneuron death (in words) (motoneurons): partially prevented developmentally regulated motoneuron death
- choline acetyltransferase activity (in words) [3]: substantial, dose-dependent increase in choline acetyltransferase activity
- relative potency in promoting survival of cortical neurons (in words) ([4]; IGF-I versus IGF-II): slightly more potent
- survival of cortical neurons (in words) ([4]; [3H]leucine incorporation, 48 hr): promoted the survival of cortical neurons
